Measurements: US20210403565A1 (BIOATLA, published 2021)
Where a chain is given by its changes, count along the chain named.

T1: human CTLA4 expressed on the cell surface of CHO cells (human, UniProt P16410 36-223)
T1 construct: whole, on cells; also called CHO-huCTLA4; huCTLA4
T1 sequence (looked up): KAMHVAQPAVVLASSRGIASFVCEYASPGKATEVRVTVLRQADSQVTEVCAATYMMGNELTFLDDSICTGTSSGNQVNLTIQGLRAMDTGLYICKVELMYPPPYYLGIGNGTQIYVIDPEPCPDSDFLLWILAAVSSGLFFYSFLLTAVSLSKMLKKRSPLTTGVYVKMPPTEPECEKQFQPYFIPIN

T2: recombinant human CTLA4 extracellular domain (human, UniProt P16410 36-161)
T2 construct: extracellular domain; also called huCTLA-4
T2 sequence (looked up): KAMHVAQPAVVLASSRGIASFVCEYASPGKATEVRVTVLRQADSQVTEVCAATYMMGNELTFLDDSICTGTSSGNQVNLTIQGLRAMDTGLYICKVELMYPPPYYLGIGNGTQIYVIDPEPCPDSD

T3: cynomolgus CTLA4 expressed on the cell surface of CHO cells (cynomolgus, UniProt G7PL88 36-223)
T3 construct: whole, on cells; also called CHO-cynoCTLA4
T3 sequence: T1 sequence (looked up) with S14N, I18T, L106M

B1: BA-087-08-32 (antibody, V domains shown)
VH: EVQLVQSGAEVKKPGATVKISCKVSGFTFSHYTMHWIRQSPSRGLEWLGFISYDGNYKYYADSVKGRFTISRDNAKNSLYLQMNSLRAEDTAVYYCARTGWLGPFDYWGQGTLVTVSS
VL: EIVMTQSPATLSVSPGERATLSCRASQSVGSSYLAWYQQKPGKAPKLLIYGAFSRATGVPSRFSGSGSGTDFTLTISSLQPEDFATYYCQQDGSSPWTFGQGTKVEIK
notes: Detected with anti-human IgG and a molecular weight of 146 kDa was used in SPR, so it was tested as a whole IgG; also called BA-087-08-032; BA-087-08-32 (# 6978)
B2: BA-087-05-19 (antibody, V domains shown)
VH: EVQLVESGGGLVQPGGSLRLSCAASGFTFSHYTMHWVRQAPGKGLEWVSFISYDGNNKYYADSVKGRFTISRDNSKNTLYLQMNSLRAEDTAVYYCARTGWLGPFDYWGQGTLVTVSS
VL: AIQLTQSPSSLSASVGDRVTITCRASQYVGSSYLAWYLQKPGQSPQLLIYGAFSRATGIPARFSGSGSGTEFTLTISSLQSEDFAVYYCQQDGSSPWTFGQGTKVEIK
notes: Detected with anti-human IgG and a molecular weight of 146 kDa was used in SPR, so it was tested as a whole IgG; also called BA-087-05-019; BA-087-05-19 (# 6972)

What was measured:
[1] = molecular target: T1, human CTLA4 expressed on the cell …; test: FACS, cells expressing human CTLA4, assay pH 7.4, MFI; lot 6978 in Glu buffer, T0; unit from the axis Log[ng/mL]
Experimental: (§1) The amount of bound antibodies was quantified using anti-human IgG antibody conjugated to fluorophores. The MFI in each reaction was proportional to the amount of antibodies bound. The EC₅₀ value (in ng/mL) for binding to human CTLA4 on cells was determined by MFI of the singlets population against antibody concentration with a Prism variable slope of four-parameter dose-response curve, which was calculated using the nonlinear fit (variable slope, four parameters) model built into GraphPad Prism software (version 7.03).

[2] = molecular target: T1, human CTLA4 expressed on the cell …; test: FACS saturation, CHO-huCTLA-4, pH 7.4, MFI, titration up to about log 6.5, curve still rising at the end; no unit in the table, unit from the axis Log Antibodies [ng/ml]
Experimental: (§2) The amount of antibodies bound on the cells was quantified using anti-human IgG antibody conjugated to fluorophores. EC₅₀ values at pH 6.0 and 7.4 for binding to cells were calculated using the nonlinear fit (variable slope, four parameters) model built into GraphPad Prism software (version 7.03). The expression levels of human CTLA4 or cynomolgus CTLA4 on the surface of the CHO cells were determined using a BD QuantiBRITE™ PE kit.
Finally, saturations of the antibodies on the CHO cells expressing human or cynomolgus CTLA4 at pH 7.4 were also measured by FACS (FIGS. 8A-8B).

[3] = molecular target: T2, recombinant human CTLA4 extracellular …; test: ELISA, wells coated with human CTLA4, assay pH 7.4; lot 6978 in His buffer, T2W; curve still rising at log 3 (OD450 below 0.2), no plateau; unit from the axis Log[ng/mL]
Experimental: (§3) Both ELISA and FACS analysis were used to measure the binding activity. […] The amount of bound antibodies was quantified using anti-human IgG antibody conjugated to HRP. The absorbance at 450 nm in each measurement was proportional to the amount of antibodies bound. […] EC50 value (in ng/mL) for binding to human CTLA4 was determined by absorbance at 450 nm against antibody concentration with Prism variable slope of four-parameter dose-response curve, which was calculated using the nonlinear fit (variable slope, four parameters) model built into GraphPad Prism software (version 7.03). The buffers tested included His buffer (His), Tris buffer (Tris), Glutamine buffer (Glu) and no buffer.

[4] = molecular target: T2, recombinant human CTLA4 extracellular …; test: ELISA, wells coated with human CTLA4, assay pH 7.4; lot 6978 in Glu buffer, T2W; curve still rising at log 3 (OD450 at most about 0.3), no plateau; unit from the axis Log[ng/mL]
Experimental: as §3

[5] = molecular target: T3, cynomolgus CTLA4 expressed on the cell …; test: FACS, CHO cells expressing cynomolgus CTLA4 (CHO-cynoCTLA-4), pH 7.4, MFI; curve near baseline up to log 4, about 150000 at log 5, no plateau; no unit in the table, unit from the axis Log Antibodies [ng/ml]
Experimental: as §2
At least two independent duplicate FACS experiments were performed for each antibody using each of the cell lines. The binding activities at different concentrations of the antibodies are plotted in these figures.

[6] = molecular target: T2, recombinant human CTLA4 extracellular …; test: ELISA, wells coated with human CTLA4, assay pH 6.0; lot 6972 in His buffer, T0; unit from the axis Log[ng/mL]
Experimental: as §3

[7] = molecular target: T2, recombinant human CTLA4 extracellular …; test: ELISA, wells coated with human CTLA4, assay pH 6.0; lot 6972 in Glu buffer, T0; unit from the axis Log[ng/mL]
Experimental: as §3

[8] = molecular target: T1, human CTLA4 expressed on the cell …; test: FACS, cells expressing human CTLA4, assay pH 7.4, MFI; lot 6972 in His buffer, T0; unit from the axis Log[ng/mL]
Experimental: as §1

[9] = molecular target: T1, human CTLA4 expressed on the cell …; test: FACS, cells expressing human CTLA4, assay pH 7.4, MFI; lot 6972 in Glu buffer, T0; unit from the axis Log[ng/mL]
Experimental: as §1

[10] = molecular target: T1, human CTLA4 expressed on the cell …; test: FACS, cells expressing human CTLA4, assay pH 7.4, MFI; lot 6972 in His buffer, T2W; unit from the axis Log[ng/mL]
Experimental: as §1

[11] = molecular target: T1, human CTLA4 expressed on the cell …; test: FACS, cells expressing human CTLA4, assay pH 7.4, MFI; lot 6972 in Glu buffer, T2W; unit from the axis Log[ng/mL]
Experimental: as §1

| Binder | EC50 [1] [µg/mL] | EC50 [2] [µg/mL] | EC50 [3] [µg/mL] | EC50 [4] [µg/mL] | EC50 [5] [µg/mL] | EC50 [6] [µg/mL] | EC50 [7] [µg/mL] | EC50 [8] [µg/mL] | EC50 [9] [µg/mL] | EC50 [10] [µg/mL] | EC50 [11] [µg/mL] |
| --- | --- | --- | --- | --- | --- | --- | --- | --- | --- | --- | --- |
| B1 | 0.814 | 69.6 | 1.07 | 0.724 | 83.9 | – | – | – | – | – | – |
| B2 | – | – | – | – | – | 0.0154 | 0.0109 | 0.433 | 0.462 | 0.615 | 0.607 |
